{"source": "paper PMC10572589", "key": {"[1]": {"target": "AusM^N127A (Aspergillus usamii E001 (parent AuXyn11A))"}, "[2]": {"target": "thermostable GHF11 xylanase AusM (Aspergillus usamii E001 (parent AuXyn11A))"}}, "data": [{"binder": "xylanase inhibitor protein SyXIP-I (natural protein) AGGKTGQVTVFWGRNKAEGSLREACDSGMYTMVTMSFLDVFGANGKYHLDLSGHDLSSVGADIKHCQSKGVPVSLSIGGYGTGYSLPSNRSALDLFDHLWNSYFGGSKPSVPRPFGDAWLDGVDLFLEHGTPADRYDVLALELAKHNIRGGPGKPLHLTATVRCGYPPAAHVGRALATGIFERVHVRTYESDKWCNQNLGWEGSWDKWTAAYPATRFYVGLTADDKSHQWVHPKNVYYGVAPVAQKKDNYGGIMLWDRYFDKQTNYSSLIKYYA", "values": [{"measurement": "residual xylanase activity at a molar ratio of SyXIP-I/xylanase of 100:1 (% of initial activity)", "setting": "[1]", "value": 62.7}, {"measurement": "molar excess of SyXIP-I over AusM needed for almost complete inhibition of xylanase activity (mol SyXIP-I per mol AusM)", "setting": "[2]", "value": "> 80"}, {"measurement": "molar ratio of SyXIP-I to AusM at which the inhibition rate of xylanase activity reached 50% (birchwood xylan, pH 4.6, 50 °C) (mol SyXIP-I per mol AusM)", "setting": "[2]", "value": 7}]}]}
